B1: hCD103.05A (antibody, mouse IgG1, V domains shown)
VH: EVQLQQSGPELEKPGASAKISCKASGYSFTGYNMNWVKQSNGKSLEWIGNIDPYYGGTSYNQKFKGKATLTVDKSSSTAYMQLKSLTSEDSAVYYCARSFYGYDAGSPYNYAMDYWGQGTPVTVSP
VL: DIVMTQSHKFMSTSVGDRVSITCKASQDVGTFVAWYQQKPGQSPKLLIYWASTRHTGVPDRFTGSGSGTDFTLTISNVQSEDLADYFCHQYSSYPYTFGGGTQLEIK
notes: Also tested labelled with AF647, conjugated with Df and labelled with 89Zr; these are written under this molecule; also called clone 05A; hCD103.05 mAb
B2: hCD103.01A (antibody, V domains shown)
VH: EVQLQESGPSLVKPSQTLSLTCSVTGDSITSGYWNWIRKFPGNKLEYMGYITYSGSTYYNPSLKSRISITRDTSKNQYYLQLNSVTTEDTATYYCTRHYYGSDAMDYWGQGTSVTVSS
VL: DIVMTQSHKFMSTSVGDRVSITCKASQDVSIAVAWYQQRPGQSPKLLIYSASYRYTGVPDRFTGSGSGTDFTFTISSVQAEDLAVYYCQQHYSTPWTFGGGTKLEIK
notes: Also tested labelled with AF647, conjugated with Df and labelled with 89Zr; these are written under this molecule; also called clone 01A; hCD103.01 mAb
B3: hCD103.06A (antibody, mouse IgG1, V domains shown)
VH: QVQLQQPGSELVRPGASVKLSCKASGYTFTSYWMHWVKQRHGQGLEWIGNIYPGSGSTNYDEKFKSKGTLTVDTSSSTAYMHLSSLTSEDSAVYYCTRGVYDNPYYFDYWGQGTTLTVSS
VL: DIQMTQSSSNLSVSLGGRVTITCKASDHINNWLAWYQQKPGNAPRVLISGATSLETGVPSRFSGSGSGKDYTLSITSLQTEDVATYYCQQYWSIPLTFGAGTKLELK
notes: also called clone 06A; hCD103.06 mAb
B4: hCD103.07A (antibody, mouse IgG1, V domains shown)
VH: B2 VH with T96A, H98N, D103S, A104S
VL: DIVMTQSQKFMSTSVADRVSVTCKASQNVGSDVAWYQQKPGQSPKSLIYSASYRYSGVPDRFTGSGSGTDFTLTISNVQSEDLAEYFCQQYNSYPSTFGGGTKLEIK
notes: also called clone 07A

Positions count from the first letter of the chain named.

T1 sequence (P38570 19-1124 limits assumed, chain 1 of 2): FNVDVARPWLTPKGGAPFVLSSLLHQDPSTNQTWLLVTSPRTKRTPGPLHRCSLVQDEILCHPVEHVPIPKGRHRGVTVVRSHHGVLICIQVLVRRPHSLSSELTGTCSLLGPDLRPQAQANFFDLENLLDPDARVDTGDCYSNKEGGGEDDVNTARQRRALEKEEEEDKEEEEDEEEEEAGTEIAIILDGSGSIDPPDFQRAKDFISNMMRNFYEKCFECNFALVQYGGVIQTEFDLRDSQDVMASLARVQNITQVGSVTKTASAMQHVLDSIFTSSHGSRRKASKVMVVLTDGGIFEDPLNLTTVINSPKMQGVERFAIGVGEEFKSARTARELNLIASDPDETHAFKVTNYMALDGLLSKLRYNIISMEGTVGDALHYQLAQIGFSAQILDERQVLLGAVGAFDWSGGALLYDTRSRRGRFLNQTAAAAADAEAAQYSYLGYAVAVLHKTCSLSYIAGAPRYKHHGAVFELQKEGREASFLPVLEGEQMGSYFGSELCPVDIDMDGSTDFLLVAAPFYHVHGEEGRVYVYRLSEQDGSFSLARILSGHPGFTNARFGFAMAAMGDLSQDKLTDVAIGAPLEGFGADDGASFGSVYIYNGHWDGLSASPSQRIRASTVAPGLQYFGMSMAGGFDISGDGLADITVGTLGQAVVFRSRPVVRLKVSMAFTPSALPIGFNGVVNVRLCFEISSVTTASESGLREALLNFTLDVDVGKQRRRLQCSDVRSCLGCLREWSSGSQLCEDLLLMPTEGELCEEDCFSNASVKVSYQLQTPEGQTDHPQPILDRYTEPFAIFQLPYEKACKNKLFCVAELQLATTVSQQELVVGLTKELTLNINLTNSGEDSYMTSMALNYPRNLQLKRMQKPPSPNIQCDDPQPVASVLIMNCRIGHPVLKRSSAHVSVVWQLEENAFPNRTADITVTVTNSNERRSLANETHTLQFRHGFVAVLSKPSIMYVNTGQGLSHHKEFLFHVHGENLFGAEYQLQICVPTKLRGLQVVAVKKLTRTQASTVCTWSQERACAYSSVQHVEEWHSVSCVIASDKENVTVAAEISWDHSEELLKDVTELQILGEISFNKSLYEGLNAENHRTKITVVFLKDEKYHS
T1 sequence (P26010 20-723 limits assumed, chain 2 of 2): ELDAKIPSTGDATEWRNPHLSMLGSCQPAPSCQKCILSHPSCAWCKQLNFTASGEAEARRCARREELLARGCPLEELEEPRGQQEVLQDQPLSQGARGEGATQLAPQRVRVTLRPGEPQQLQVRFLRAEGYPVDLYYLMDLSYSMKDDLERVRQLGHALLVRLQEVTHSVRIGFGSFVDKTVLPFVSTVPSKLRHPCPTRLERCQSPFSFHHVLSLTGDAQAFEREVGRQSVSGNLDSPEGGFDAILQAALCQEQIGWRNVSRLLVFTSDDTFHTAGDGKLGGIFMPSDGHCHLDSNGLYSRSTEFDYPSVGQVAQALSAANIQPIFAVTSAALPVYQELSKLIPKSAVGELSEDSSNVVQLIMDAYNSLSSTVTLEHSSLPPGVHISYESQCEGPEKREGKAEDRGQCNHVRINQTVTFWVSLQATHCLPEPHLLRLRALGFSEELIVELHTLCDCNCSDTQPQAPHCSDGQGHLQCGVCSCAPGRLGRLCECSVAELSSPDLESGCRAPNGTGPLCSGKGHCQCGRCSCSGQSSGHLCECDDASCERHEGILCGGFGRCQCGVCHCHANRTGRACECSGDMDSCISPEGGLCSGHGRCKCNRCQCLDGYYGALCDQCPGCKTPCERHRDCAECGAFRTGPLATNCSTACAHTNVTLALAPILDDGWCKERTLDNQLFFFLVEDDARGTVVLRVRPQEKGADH

One assay has as its target T1, recombinant hCD103/hBeta7 Fc-protein (Acro-Biosystems) (human, UniProt P38570 19-1124; P26010 20-723, limits assumed).
T1 construct: Bought protein with no catalog number and no construct limits printed; also called recombinant human CD103/Beta7; recombinant hCD103/beta7; not shown: fusion part of the bought 'Fc-protein'
Nature of the assay: ELISA on coated recombinant human CD103/beta7 Fc-protein, OD450-620, lower right panel titled rhCD103/beta7. How it is done:
Protein coated 96-well plates were blocked in protein-free blocking buffer (Pierce) for 1.5 hour at 37° C. Plates were washed and incubated for 1 hour at RT with mAb/Fab in 0.1% Tween-20 in PBS. Next, plates were washed with PBS-T and incubated for 1 hour at RT with goat-anti-mouse IgG-HRP conjugate (Southern Biotech) for mAbs, and goat-anti-human Fab-HRP conjugate (Jackson Immuno Research) for the Fab fragments in 0.1% Tween-20 in PBS. […] Reactions were stopped with 0.5 M H2SO4 and absorbances were read at 450 and 610 nm.
Turning to B1, the “EC50 (read off the curve)” value was roughly 0.003 µg/mL.
Consider B2, for which the “EC50 (read off the curve)” value is roughly 0.003 µg/mL.

The target in the next assay is T2, human CD103 (integrin Alpha-E) / human integrin Beta-7 heterodimer on cells (human, UniProt P38570 19-1179; P26010 20-798).
T2 construct: the assay field tells which cells; also called hCD103/hBeta7; CHO.K1-hCD103/hBeta7
T2 sequence (P38570 19-1179 limits assumed, chain 1 of 2): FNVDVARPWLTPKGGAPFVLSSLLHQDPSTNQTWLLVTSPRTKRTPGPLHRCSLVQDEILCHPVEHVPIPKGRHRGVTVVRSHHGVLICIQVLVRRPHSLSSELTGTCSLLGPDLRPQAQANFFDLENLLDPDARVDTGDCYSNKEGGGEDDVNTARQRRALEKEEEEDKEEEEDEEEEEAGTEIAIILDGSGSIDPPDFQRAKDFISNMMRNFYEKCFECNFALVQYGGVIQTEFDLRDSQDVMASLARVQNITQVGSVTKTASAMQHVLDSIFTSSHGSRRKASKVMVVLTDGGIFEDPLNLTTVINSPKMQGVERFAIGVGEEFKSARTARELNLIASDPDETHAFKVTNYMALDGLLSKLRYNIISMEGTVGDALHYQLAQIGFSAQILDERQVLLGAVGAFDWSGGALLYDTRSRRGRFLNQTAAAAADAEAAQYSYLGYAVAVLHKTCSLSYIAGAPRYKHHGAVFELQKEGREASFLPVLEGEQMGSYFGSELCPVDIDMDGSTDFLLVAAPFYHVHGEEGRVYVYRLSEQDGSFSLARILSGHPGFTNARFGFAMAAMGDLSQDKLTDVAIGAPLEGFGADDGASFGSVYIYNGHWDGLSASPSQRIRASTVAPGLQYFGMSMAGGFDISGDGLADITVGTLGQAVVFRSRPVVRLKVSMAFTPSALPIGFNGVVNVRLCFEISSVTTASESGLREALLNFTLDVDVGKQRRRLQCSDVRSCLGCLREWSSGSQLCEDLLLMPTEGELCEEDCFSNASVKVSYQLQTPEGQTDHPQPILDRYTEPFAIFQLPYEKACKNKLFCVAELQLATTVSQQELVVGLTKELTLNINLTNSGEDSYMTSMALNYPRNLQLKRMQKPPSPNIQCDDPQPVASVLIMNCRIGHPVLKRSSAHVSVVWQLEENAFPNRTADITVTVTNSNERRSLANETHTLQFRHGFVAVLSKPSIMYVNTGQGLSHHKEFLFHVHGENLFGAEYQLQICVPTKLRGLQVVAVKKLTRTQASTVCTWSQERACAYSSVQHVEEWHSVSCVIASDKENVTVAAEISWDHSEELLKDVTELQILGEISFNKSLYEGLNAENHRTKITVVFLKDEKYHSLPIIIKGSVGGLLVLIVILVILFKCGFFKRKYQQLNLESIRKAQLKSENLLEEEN
T2 sequence (P26010 20-798 limits assumed, chain 2 of 2): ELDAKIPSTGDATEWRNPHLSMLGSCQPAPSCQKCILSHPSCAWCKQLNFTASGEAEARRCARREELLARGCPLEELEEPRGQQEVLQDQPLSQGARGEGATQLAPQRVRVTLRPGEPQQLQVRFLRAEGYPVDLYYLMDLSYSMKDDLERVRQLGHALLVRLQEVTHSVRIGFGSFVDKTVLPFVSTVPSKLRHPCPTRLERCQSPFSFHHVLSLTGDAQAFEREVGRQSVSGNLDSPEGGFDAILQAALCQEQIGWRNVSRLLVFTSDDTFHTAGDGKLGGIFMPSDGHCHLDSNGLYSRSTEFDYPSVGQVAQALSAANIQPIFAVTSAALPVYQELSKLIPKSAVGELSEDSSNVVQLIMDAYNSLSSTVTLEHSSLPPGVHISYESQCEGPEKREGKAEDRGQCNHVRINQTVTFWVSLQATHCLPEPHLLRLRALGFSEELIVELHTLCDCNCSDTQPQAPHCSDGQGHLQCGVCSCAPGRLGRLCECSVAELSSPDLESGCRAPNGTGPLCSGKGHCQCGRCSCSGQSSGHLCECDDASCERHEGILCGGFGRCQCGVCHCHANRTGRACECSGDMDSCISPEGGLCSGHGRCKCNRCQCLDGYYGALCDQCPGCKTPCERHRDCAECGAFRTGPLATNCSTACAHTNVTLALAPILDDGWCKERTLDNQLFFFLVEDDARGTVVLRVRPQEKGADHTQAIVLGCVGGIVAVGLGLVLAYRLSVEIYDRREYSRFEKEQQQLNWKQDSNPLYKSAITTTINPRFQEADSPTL
Nature of the assay: flow cytometry competition on CD103+CD8+ T cells; pre-incubation with unlabeled 07A; table n=2. As for the experimental part:
(§1) Percentage binding of fluorescently labeled mAbs was determined using flow cytometry. Maximum binding was set at 100%.
(§2) Percentage binding of fluorescently labeled mAbs was determined using flow cytometry. Maximum binding was set at 100%
For the molecule B1, the “% binding of the fluorescently labeled mAb (IgG pre-incubation = 100)” value (from here on “% binding”) is 56.9%.
The same measure, in the same setting: in the case of B3 it was 97%.
For the molecule B4, the “% binding” value stood at 29.8%.
On the same count and under the same terms, in the case of B2 it was 26.6%.

The next assay has as its target T2, human CD103 (integrin Alpha-E) / human …. Nature of the assay: binding of 89Zr-labeled mAb to CHO.K1-hCD103/hBeta7 cells, bound activity in counts.
As to B1, the “EC50 (read off the curve)” value is roughly 0.4 µg/mL.

The target is the same in another assay. Nature of the assay: cell-based ELISA on CHO.K1-hCD103/hBeta7 cells, relative absorbance, upper panel. As for the experimental part: (§3) Wells were washed with PBS and incubated with Rabbit anti-Mouse/IgG-HRP (1:4000, Dako) or Fab specific Goat anti-Human/IgG-HRP (1:4000; Sigma Aldrich) for 1 h at 37° C. Next, wells were washed with PBS and TMB substrate (KPL) was added. The color reaction was stopped by adding 1M HCl solution and the absorbance was measured by a microplate reader (Thermo Scientific).
With B1, the “EC50 (read off the curve)” value is roughly 0.04 µg/mL.
B2: the concentration for a half-maximal effect (EC50 (read off the curve)) is roughly 0.04 µg/mL.

Another assay has the same target. Nature of the assay: cell ELISA on CHO.K1-humanCD103/beta7 cells, abs 450-610.
Take B3: the “EC50 (read off the curve)” value was roughly 0.04 µg/mL.
With B4, the “EC50 (read off the curve)” value was roughly 0.01 µg/mL.
Take B2: the “EC50 (read off the curve)” value was roughly 0.02 µg/mL.

The target is the same in another assay. The experiment in a line: flow cytometry competition on CD103+CD8+ T cells; pre-incubation with unlabeled 01A; table n=2. As for the experimental part: as §1, §2
B1: the “% binding” value amounted to 2.2%.
Regarding B3, the “% binding” value turned out to be 99.1%.
The same measure, in the same setting: in the case of B4 it was 0.7%; in that of B2, 2.2%.

A further assay shares this target. The experiment in a line: flow cytometry competition on CD103+CD8+ T cells; pre-incubation with unlabeled 01A; table n=1. How it is done: as §1, §2
In the case of B1, the “% binding” value was determined as 2.6%.
On the same count and under the same terms, in the case of B3 it was 96%; in that of B4, 0.7%; in that of B2, 1.5%.

For the next assay the target is unchanged. Nature of the assay: flow cytometry competition on CD103+CD8+ T cells; pre-incubation with unlabeled IgG (f2); table n=2. As for the experimental part: as §1, §2
Consider B1, for which the “% binding” value was determined as 100%.
Still for that read-out and setting: in the case of B3 it was 100%; in that of B4, 100%; in that of B2, 100%.

The target is the same in another assay. Nature of the assay: cell-based ELISA on CHO.K1-hCD103/hBeta7 cells, Df-conjugated mAb, relative absorbance, upper panel. As for the experimental part:
as §3
B1: the “EC50 (read off the curve)” value is roughly 0.04 µg/mL.
On the same count and under the same terms, in the case of B2 it was roughly 0.04 µg/mL.

For another assay the target is unchanged. Nature of the assay: flow cytometry competition on CD103+CD8+ T cells; pre-incubation with unlabeled 03A; table n=2. How it is done: as §1, §2
As to B1, the “% binding” value turned out to be 90.9%.
Still for that read-out and setting: in the case of B3 it was 108%.
The same measure, in the same setting: in the case of B4 it was 77.8%.
The same measure, in the same setting: in the case of B2 it was 97.3%.

These data come from patent US20230183354A1 (IMMIOS HOLDING B V, published 2023).
